Residue numbers refer to the chain shown, from its start.
Columns and labels:
[1] = target: Thermococcus sp. DNA polymerase (R671E/K677E/K712E)/N210D R671E,K677E,K712E,N210D (Thermococcus sp.) (UniProt Q56366); experiment: EMSA; details: EMSA as for Taq, 1x TAE with 2 mM EDTA
[2] = target: Thermococcus sp. DNA polymerase (R671S/K677S/K712S)/N210D R671S,K677S,K712S,N210D (Thermococcus sp.) (UniProt Q56366); experiment: EMSA; details: EMSA as for Taq, 1x TAE with 2 mM EDTA
[3] = target: T1, Thermococcus sp. DNA polymerase (Thermococcus sp.) (UniProt Q56366); experiment: EMSA; details: EMSA as for Taq, 1x TAE with 2 mM EDTA
T1 sequence: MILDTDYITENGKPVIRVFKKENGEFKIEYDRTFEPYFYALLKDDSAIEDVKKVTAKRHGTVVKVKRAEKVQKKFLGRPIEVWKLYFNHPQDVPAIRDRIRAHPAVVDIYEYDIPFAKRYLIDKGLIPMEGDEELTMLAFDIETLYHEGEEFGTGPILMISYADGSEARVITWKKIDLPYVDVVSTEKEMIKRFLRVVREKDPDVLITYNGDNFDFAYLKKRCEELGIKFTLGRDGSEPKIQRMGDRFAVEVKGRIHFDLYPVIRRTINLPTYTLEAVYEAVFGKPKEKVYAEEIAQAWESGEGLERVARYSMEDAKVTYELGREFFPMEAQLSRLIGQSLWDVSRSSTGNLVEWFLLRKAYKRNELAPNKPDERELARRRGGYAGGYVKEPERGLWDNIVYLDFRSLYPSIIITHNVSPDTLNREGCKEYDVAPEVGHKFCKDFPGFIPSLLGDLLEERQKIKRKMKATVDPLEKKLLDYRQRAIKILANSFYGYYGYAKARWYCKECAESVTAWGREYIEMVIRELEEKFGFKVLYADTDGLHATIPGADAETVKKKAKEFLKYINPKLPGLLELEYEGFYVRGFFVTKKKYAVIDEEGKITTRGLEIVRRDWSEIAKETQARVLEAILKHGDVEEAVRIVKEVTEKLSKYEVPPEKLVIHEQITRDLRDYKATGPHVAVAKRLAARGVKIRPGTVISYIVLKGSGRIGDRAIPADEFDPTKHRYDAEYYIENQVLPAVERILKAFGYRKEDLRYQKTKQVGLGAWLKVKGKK

[4] = target: Thermococcus sp. DNA polymerase R671E/K677E R671E,K677E (Thermococcus sp.) (UniProt Q56366); experiment: EMSA; details: EMSA as for Taq, 1x TAE with 2 mM EDTA
[5] = target: Thermococcus sp. DNA polymerase R671E/K677E/K712E R671E,K677E,K712E (Thermococcus sp.) (UniProt Q56366); experiment: EMSA; details: EMSA as for Taq, 1x TAE with 2 mM EDTA
[6] = target: T2, Thermococcus sp. DNA polymerase R671S/K677S/K712S R671S,K677S,K712S (Thermococcus sp.) (UniProt Q56366); experiment: EMSA; details: EMSA as for Taq, 1x TAE with 2 mM EDTA
T2 sequence: T1 sequence with R460S, K466S, K501S

[7] = target: Taq DNA polymerase (I532T/R536C/K540C/H784C)/(R25S/Y81F/G187A) (UniProt P19821 P19821:1-832, I532T,R536C,K540C,H784C,R25S,Y81F,G187A); experiment: EMSA; 1x TAE with 2 mM EDTA, pH 8.3; above highest tested 1000 nM; details: tags: Fermentas
Experimental: (§1) Affinity of Taq DNA polymerase (FIG. 7A) and its mutants (FIG. 7B-J) for double-stranded DNA (template-primer duplex) was analyzed by electrophoretic mobility shift assays (EMSA) as previously described (Lagunavicius et al. (2003) J. Mol. Biol. 326: 1051-1064) except that 1 nM of 24*/44 nt duplex (* indicates ³³P label in 5′-terminus of 24 nt oligonucleotide) formed by annealing of 5′-[…]-3′ (24 nt) and 5′-[…]-3′ (44 nt) and 0, 1, 2, 5, 10, 20, 50, 100, 200, 500, 1000 nM of the proteins were mixed in 1×TAE buffer (40 mM Tris-acetate, pH8.3 at 25° C.; 2 mM EDTA) supplemented with 10% glycerol and electrophoresis was performed in 12% PAAG. The gels were analyzed by Cyclone Storage Phosphor System and OptiQuant™ Image Analysis Software (Packard Instruments) and GraphPad Prism version 4.03 Software (GraphPad Software, Inc.) (FIG. 7).
(§2) Affinity of Taq DNA polymerase (FIG. 8A) and its mutants (FIG. 8B-G) for single-stranded DNA (primer) was analyzed as described in Example 7, except that 5′-labeled 24 nt oligonucleotide (5′-[…]) was used instead of 24*/44 nt duplex (FIG. 8).

[8] = target: T3, Taq DNA polymerase I532T/R536C/K540C/H784C (UniProt P19821 P19821:1-832, I532T,R536C,K540C,H784C); experiment: as above; details: tags: Fermentas; label: 5'-33P
Experimental: as §1, §2

[9] = target: T4, Taq DNA polymerase R536C/K540C/D610A/H784C (UniProt P19821 P19821:1-832, R536C,K540C,D610A,H784C); experiment: as above; details: tags: Fermentas; label: 5'-33P
Experimental: as §1, §2

[10] = target: T5, Taq DNA polymerase (K540C/H784C)/R25S (UniProt P19821 P19821:1-832, K540C,H784C,R25S); experiment: as above; details: tags: Fermentas; label: 5'-33P
Experimental: as §1, §2

[11] = target: Taq DNA polymerase (R536C/K540C/D610A/H784C)/(Y81F/G187A) (UniProt P19821 P19821:1-832, R536C,K540C,D610A,H784C,Y81F,G187A); experiment: as above; details: tags: Fermentas
Experimental: as §1, §2

[12] = target: Taq DNA polymerase (K540C/H784C)/Y81F (UniProt P19821 P19821:1-832, K540C,H784C,Y81F); experiment: EMSA; 1x TAE with 2 mM EDTA, pH 8.3, 10% glycerol; details: tags: Fermentas
Experimental: as §1, §2

[13] = target: Taq DNA polymerase K540C/H784C (UniProt P19821 P19821:1-832, K540C,H784C); experiment: EMSA; 1x TAE with 2 mM EDTA, pH 8.3, 10% glycerol; details: tags: Fermentas
Experimental: as §1, §2

Taq DNA polymerase = Taq DNA polymerase (UniProt P19821 P19821:1-832); experiment: EMSA; 1x TAE with 2 mM EDTA, pH 8.3, 10% glycerol; details: tags: recombinant, Fermentas; label: 5'-33P
Experimental: as §1, §2

[14] = target: Taq DNA polymerase E491G/R536C/K540C/H784C (UniProt P19821 P19821:1-832, E491G,R536C,K540C,H784C); experiment: EMSA; 1x TAE with 2 mM EDTA, pH 8.3, 10% glycerol; details: tags: Fermentas
Experimental: as §1, §2

[15] = target: T6, Taq DNA polymerase N485S/R536C/K540C/H784C (UniProt P19821 P19821:1-832, N485S,R536C,K540C,H784C); experiment: EMSA; 1x TAE with 2 mM EDTA, pH 8.3; tighter than WT; details: tags: Fermentas; label: 5'-33P
[16] = target: T6, Taq DNA polymerase …; experiment: EMSA; 1x TAE with 2 mM EDTA, pH 8.3, 10% glycerol; details: tags: Fermentas; label: 5'-33P on 24 nt strand; 24 nt primer annealed to 44 nt template, 20 nt 5' template overhang
Experimental: as §1, §2

[17] = target: T3, Taq DNA polymerase …; experiment: EMSA; 1x TAE with 2 mM EDTA, pH 8.3, 10% glycerol; details: tags: Fermentas; label: 5'-33P on 24 nt strand; 24 nt primer annealed to 44 nt template, 20 nt 5' template overhang
Experimental: as §1, §2

[18] = target: T4, Taq DNA polymerase …; experiment: EMSA; 1x TAE with 2 mM EDTA, pH 8.3, 10% glycerol; details: tags: Fermentas; label: 5'-33P on 24 nt strand; 24 nt primer annealed to 44 nt template, 20 nt 5' template overhang
Experimental: as §1, §2

[19] = target: T5, Taq DNA polymerase (K540C/H784C)/R25S; experiment: EMSA; 1x TAE with 2 mM EDTA, pH 8.3, 10% glycerol; details: tags: Fermentas; label: 5'-33P on 24 nt strand; 24 nt primer annealed to 44 nt template, 20 nt 5' template overhang
Experimental: as §1, §2

[20] = label: 5'-33P on 24 nt strand, 24 nt primer annealed to 44 nt template, 20 nt 5' template overhang

T3 sequence (P19821 whole entry I532T/R536C/K540C/H784C, one chain of several): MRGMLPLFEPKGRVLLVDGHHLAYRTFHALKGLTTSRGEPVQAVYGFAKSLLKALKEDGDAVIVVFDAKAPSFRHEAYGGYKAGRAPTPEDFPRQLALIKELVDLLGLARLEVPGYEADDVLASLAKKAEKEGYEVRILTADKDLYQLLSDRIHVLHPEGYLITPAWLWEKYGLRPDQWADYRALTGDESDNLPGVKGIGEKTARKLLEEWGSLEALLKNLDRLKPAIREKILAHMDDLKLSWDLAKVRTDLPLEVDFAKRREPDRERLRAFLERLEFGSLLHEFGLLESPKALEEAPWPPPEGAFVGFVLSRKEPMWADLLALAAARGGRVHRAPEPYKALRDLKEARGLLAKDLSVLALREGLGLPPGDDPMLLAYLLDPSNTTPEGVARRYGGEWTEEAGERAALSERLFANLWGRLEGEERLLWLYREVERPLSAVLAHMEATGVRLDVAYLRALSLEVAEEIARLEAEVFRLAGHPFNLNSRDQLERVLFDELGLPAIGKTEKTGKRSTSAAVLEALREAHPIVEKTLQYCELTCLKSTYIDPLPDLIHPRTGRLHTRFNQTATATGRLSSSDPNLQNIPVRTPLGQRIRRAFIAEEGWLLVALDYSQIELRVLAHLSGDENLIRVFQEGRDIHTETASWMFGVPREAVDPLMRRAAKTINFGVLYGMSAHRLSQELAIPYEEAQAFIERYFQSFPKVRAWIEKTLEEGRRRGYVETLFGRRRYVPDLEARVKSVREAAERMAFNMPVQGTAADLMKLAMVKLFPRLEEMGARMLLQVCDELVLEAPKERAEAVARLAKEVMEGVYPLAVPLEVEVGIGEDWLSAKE
T4 sequence (P19821 whole entry R536C/K540C/D610A/H784C, one chain of several): as the sequence (P19821 whole entry I532T/R536C/K540C/H784C, one chain of several) above, with T532I, D610A counted along it
Sequence of Taq DNA polymerase E491G/R536C/K540C/H784C (P19821 whole entry E491G/R536C/K540C/H784C, one chain of several): as the sequence (P19821 whole entry I532T/R536C/K540C/H784C, one chain of several) above, with E491G, T532I counted along it
Sequence of Taq DNA polymerase K540C/H784C (P19821 whole entry K540C/H784C, one chain of several): as the sequence (P19821 whole entry I532T/R536C/K540C/H784C, one chain of several) above, with T532I, C536R counted along it
T5 sequence (P19821 whole entry R25S/K540C/H784C, one chain of several): as the sequence (P19821 whole entry I532T/R536C/K540C/H784C, one chain of several) above, with R25S, T532I, C536R counted along it
Sequence of Taq DNA polymerase (I532T/R536C/K540C/H784C)/(R25S/Y81F/G187A) (P19821 whole entry R25S/Y81F/G187A/I532T/R536C/K540C/H784C, one chain of several): as the sequence (P19821 whole entry I532T/R536C/K540C/H784C, one chain of several) above, with R25S, Y81F, G187A counted along it
Sequence of Taq DNA polymerase (R536C/K540C/D610A/H784C)/(Y81F/G187A) (P19821 whole entry Y81F/G187A/R536C/K540C/D610A/H784C, one chain of several): as the sequence (P19821 whole entry I532T/R536C/K540C/H784C, one chain of several) above, with Y81F, G187A, T532I, D610A counted along it
Sequence of Taq DNA polymerase (K540C/H784C)/Y81F (P19821 whole entry Y81F/K540C/H784C, one chain of several): as the sequence (P19821 whole entry I532T/R536C/K540C/H784C, one chain of several) above, with Y81F, T532I, C536R counted along it
T6 sequence (P19821 whole entry N485S/R536C/K540C/H784C, one chain of several): as the sequence (P19821 whole entry I532T/R536C/K540C/H784C, one chain of several) above, with N485S, T532I counted along it
Sequence of Taq DNA polymerase (P19821 whole entry, one chain of several): as the sequence (P19821 whole entry I532T/R536C/K540C/H784C, one chain of several) above, with T532I, C536R, C540K, C784H counted along it

Molecule: TTTTAGCCGCTAGAGTCGACCTGC / GGAGACAAGCTTGTATGCCTGCAGGTCGACTCTAGCGGCTAAAA [24/44 nt template-primer duplex]
- Kd [1]: 470 nM
- Kd [2]: 190 nM
- Kd [3]: 2.8 nM
- Kd [4]: 240 nM
- Kd [5]: 190 nM
- Kd [6]: 110 nM

Molecule: TTTTAGCCGCTAGAGTCGACCTGC [24 nt primer]
- Kd [1]: 2300 nM
- Kd [2]: 440 nM
- Kd [3]: 52 nM
- Kd [4]: 730 nM
- Kd [5]: 740 nM
- Kd [6]: 310 nM

Molecule: TTTTAGCCGCTAGAGTCGACCTGC (ssDNA) [24 nt primer]
- Kd ([7]; label: 5'-33P): 7700 nM
- Kd [8]: 5200 nM
- Kd [9]: 2000 nM
- Kd [10]: 2700 nM
- Kd ([11]; label: 5'-33P): 3700 nM
- Kd ([12]; label: 5'-33P): 350 nM
- Kd ([13]; label: 5'-33P): 460 nM
- Kd (Taq DNA polymerase): 79 nM
- Kd ([14]; label: 5'-33P): 530 nM
- Kd [15]: 23 nM

B1: 24/44 nt template-primer duplex (dsDNA)
DNA 1: TTTTAGCCGCTAGAGTCGACCTGC
DNA 2: GGAGACAAGCTTGTATGCCTGCAGGTCGACTCTAGCGGCTAAAA
- Kd [7, 20]: 16000 nM
- Kd [11, 20]: 2200 nM
- Kd [16]: 32 nM
- Kd [12, 20]: 28 nM
- Kd [13, 20]: 25 nM
- Kd [17]: 990 nM
- Kd [18]: 320 nM
- Kd [14, 20]: 200 nM
- Kd [19]: 56 nM

Reference: patent publication US20110059490, “POLYMERASE COMPOSITIONS AND USES” (Fermentas UAB, published 2011)
